From the Human Domainome abundance scans (Beltran et al. 2025)

B1: 3'-5' exoribonuclease 1, residues 65 to 114; numbered along this chain, Q8IV48 (parent)
chain: VYKEIAITNGCINRMSKEELRAKLSEFKLETRGVKDVLKKRLKNYYKKQK

Variants of: B1
Assay: abundance fitness (aPCA) (normalised: wild type 0, dead -1); higher = more abundant; growth selection in yeast, the domain comes from the species named
Settings: Homo sapiens

Abundance fitness: each site, then its substitutions
K39: A -0.36 | M -0.521 | Q -0.398 | D -0.967 | E -0.939 | P -0.979 | I -0.382 | H -1.11 | R -0.114 | C -0.396 | N -0.582 | Y -0.917 | F -0.909 | W -1.04 | L -0.632 | G -0.721 | T -0.458 | V -0.196
K40: E -0.44 | N -0.319 | Y -0.7 | A -0.427 | C -0.705 | T -0.398 | P -0.951 | G -0.777 | V -0.669 | M -0.634 | I -0.819 | W -0.985 | F -0.992 | D -0.741 | S -0.521 | H -0.576 | L -0.608
F27: G -0.723 | L 0.148 | I 0.003 | M 0.026 | H 0.062 | D -0.652 | P -0.914 | T -0.483 | C 0.065 | W -0.453 | S -0.307 | A -0.065 | Y -0.019 | E -0.036 | Q -0.166 | N 0.007 | K -0.065
D36: W -0.106 | A -0.024 | F -0.289 | V -0.292 | Y -0.176 | H 0 | S 0.048 | Q -0.236 | P -0.17 | R 0 | I -0.334 | T -0.042 | E -0.379 | M -0.27 | N 0.02 | G -0.244 | L -0.201 | K 0.044
L42: A -0.918 | F -0.551 | T -1.1 | D -0.961 | G -0.871 | N -0.918 | K -1.04 | Y -0.969 | M -0.611 | C -0.925 | V -0.754 | S -0.511 | E -0.892 | H -0.907 | W -0.888 | P -0.999 | Q -0.912
R41: Q -0.992 | H -1.02 | T -0.963 | V -1.02 | I -0.865 | K -0.914 | Y -0.941 | M -0.803 | P -0.803 | W -0.975 | C -1.01 | E -1.02 | S -0.641 | F -0.887 | D -1.09 | A -0.891 | N -0.895
T31: N -0.115 | M -0.285 | G -0.791 | K -0.05 | F 0.038 | W -0.161 | V -0.106 | L -0.639 | I -0.134 | A -0.198 | Q -0.156 | P -0.114 | R -0.327 | S -0.088 | H 0.143 | Y 0.121
E26: G -0.24 | D -0.119 | M -0.267 | P -0.964 | R -0.472 | H -0.267 | T -0.189 | A -0.202 | I -0.432 | C -0.31 | W -0.406 | S -0.185 | L -0.22 | Q -0.102 | K -0.273 | F -0.169 | Y -0.153 | N -0.273 | V -0.362
R32: P -0.964 | A -0.383 | M -0.646 | G -0.394 | V -0.471 | T -0.292 | C -0.459 | L -0.703 | W -0.478 | N -0.409 | I -0.628 | F -0.521 | Q -0.396 | E -0.572 | D -0.399 | S -0.318 | H -0.319 | K -0.209
S25: R 0.022 | H -0.099 | L -0.083 | F -0.104 | Y -0.105 | T -0.126 | N -0.038 | I -0.315 | P -0.323 | D -0.096 | E -0.106 | W -0.188 | V -0.205 | A 0.032 | C -0.121 | M -0.1 | Q -0.034 | K 0.004 | G -0.039
L38: I -0.541 | M -0.338 | Y -1.05 | E -0.933 | F -0.668 | R -0.948 | T -0.993 | H -1.02 | A -0.893 | W -0.629 | D -0.376 | K -0.828 | N -0.95 | S -0.458 | P -0.968 | G -1.09 | Q -0.874
K28: M -0.194 | R -0.061 | L -0.732 | C -0.127 | W -0.779 | T -0.338 | H -0.057 | P -0.963 | F -0.407 | Q -0.124 | G 0.038 | S -0.06 | Y -0.39 | V -0.817 | E -0.178 | A -0.141 | D -0.156
L29: A -0.827 | Q -0.196 | T -0.884 | Y -0.874 | I -0.349 | E -0.737 | D -0.878 | M -0.198 | K -0.666 | N -0.827 | F -0.688 | W -0.694 | G -0.875 | C -0.256 | H -0.974 | V -0.561 | P -0.999
E30: I -0.732 | S -0.148 | H -0.689 | N -0.16 | K -0.401 | R -0.685 | Y -0.387 | T -0.566 | F -0.501 | L -0.67 | G -0.562 | P -0.283 | Q -0.359 | V -0.738 | M -0.685 | W -0.516
V37: H -0.695 | R -0.124 | A -0.037 | K 0.027 | F -0.562 | I -0.228 | L -0.544 | Q -0.148 | W -0.763 | S -0.136 | N -0.321 | T 0.01 | P -1.02 | Y -0.853 | E -0.096 | D -0.25 | G -0.639 | C -0.191
K43: A -0.579 | C -0.823 | G -0.846 | H -0.729 | E -0.712 | P -0.806 | I -0.448 | M -0.506 | N -0.39 | L -0.593 | D -0.737 | F -0.755 | Q -0.469
K35: V -0.262 | T -0.314 | C -0.58 | P -0.797 | A -0.347 | W -0.815 | F -0.81 | Q -0.767 | Y -0.827 | L -0.698 | M -0.765 | H -0.709 | G -0.845 | S -0.48 | I -0.475 | R -0.52 | N -0.697 | D -0.772
L24: W -0.902 | Q -0.927 | V -0.813 | S -0.488 | R -0.96 | T -0.832 | Y -0.896
G33: Q -1.09 | T -1.06 | M -0.988 | H -0.875 | A -0.842 | I -0.97 | R -0.739 | N -0.991 | D -0.663 | Y -0.931 | W -0.779 | K -0.93 | C -0.608 | F -0.977 | E -0.791 | S -0.787
V34: E -0.553 | W -0.352 | C -0.078 | F -0.245 | S -0.109 | Q -0.241 | I -0.064 | R 0.11 | T 0.046 | A -0.177 | G -0.213 | H 0.054 | D -0.293 | N 0.039 | P -0.379 | M -0.582 | L -0.213 | Y -0.244 | K 0.079
